# Measurements from PMC6474821.
# Like-named read-outs stand apart in the source and are kept apart here.
# T1: CREB bZip (Rattus norvegicus, UniProt P15337-1 270-341, C300S;C310S;C337S)
# T1 sequence: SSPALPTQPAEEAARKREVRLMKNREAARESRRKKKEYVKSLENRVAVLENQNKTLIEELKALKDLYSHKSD
# B1: half-site CRE 14-mer (dsDNA)
# DNA 1: ATCTGCGTCAGAGT
# DNA 2: ACTCTGACGCAGAT
# Assays:
# Test in all cases: fluorescence anisotropy
# [1] = target: htCREBD,4 (unphosphorylated) (UniProt P15337-1 1-341, C90A;V118D;C300S;C310S;C337S;del162-272)
# CREB bZip [2] = target: T1, CREB bZip
# CREB bZip [3] = target: T1, CREB bZip; remark: listed apart in the source
binder,measurement,setting,value
B1,binding result,[1],binds
same,Kd,CREB bZip [2],~38 nM
same,Kd,CREB bZip [3],~32 nM
